Assay results: patent publication US20140087995A1 (published 2014)
Numbered stars: 1 amine (or outer) side, 2 acyl side, 3 side chain; on linkers, the order of the positions; unused ones are H or OH. Bridge positions count the residues as written; N and C are the ends. Side chains are listed from the residue outwards. Ends that are not written are not given here. * marks the point of attachment. γGlu = O=C(O)[C@H](CCC(=O)[*:2])N[*:1]; C14 diacid = O=C(O)CCCCCCCCCCCCC(=O)*

T1: human amylin receptor (amylin 3(a) receptor: human calcitonin receptor coexpressed with RAMP-3) (human, UniProt P30988 25-474; O60896 24-148)
T1 sequence (looked up) 1: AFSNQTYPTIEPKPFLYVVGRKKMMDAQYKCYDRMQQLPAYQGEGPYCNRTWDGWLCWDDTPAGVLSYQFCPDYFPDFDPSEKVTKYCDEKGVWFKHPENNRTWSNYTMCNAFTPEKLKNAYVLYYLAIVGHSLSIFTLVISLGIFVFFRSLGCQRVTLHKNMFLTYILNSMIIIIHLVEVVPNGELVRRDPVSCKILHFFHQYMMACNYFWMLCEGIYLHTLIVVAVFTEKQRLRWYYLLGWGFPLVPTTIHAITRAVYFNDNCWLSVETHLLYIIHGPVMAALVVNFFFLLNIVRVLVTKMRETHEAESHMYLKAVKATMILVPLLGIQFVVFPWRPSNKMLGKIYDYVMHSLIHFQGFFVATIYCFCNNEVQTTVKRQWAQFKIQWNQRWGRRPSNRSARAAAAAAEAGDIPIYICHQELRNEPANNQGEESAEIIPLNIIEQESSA
T1 sequence (looked up) 2: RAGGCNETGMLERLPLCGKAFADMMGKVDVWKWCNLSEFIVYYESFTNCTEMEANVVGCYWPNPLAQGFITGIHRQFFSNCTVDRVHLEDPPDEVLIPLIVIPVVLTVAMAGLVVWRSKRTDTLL

T2: human calcitonin receptor (human, UniProt P30988 25-474)
T2 sequence (looked up): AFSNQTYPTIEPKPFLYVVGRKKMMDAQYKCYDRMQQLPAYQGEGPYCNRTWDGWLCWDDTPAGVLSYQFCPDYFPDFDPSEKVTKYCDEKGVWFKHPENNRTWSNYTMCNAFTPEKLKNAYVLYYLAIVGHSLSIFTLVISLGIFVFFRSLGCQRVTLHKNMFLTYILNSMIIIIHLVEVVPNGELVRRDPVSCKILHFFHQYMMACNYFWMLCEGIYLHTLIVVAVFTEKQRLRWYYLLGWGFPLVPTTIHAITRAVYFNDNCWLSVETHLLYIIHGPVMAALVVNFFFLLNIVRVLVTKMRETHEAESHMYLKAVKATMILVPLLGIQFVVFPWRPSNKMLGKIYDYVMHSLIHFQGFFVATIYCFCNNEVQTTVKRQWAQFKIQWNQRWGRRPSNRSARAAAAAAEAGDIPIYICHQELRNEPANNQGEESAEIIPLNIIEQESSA

T3: rat amylin receptor (rat calcitonin receptor + rat RAMP 3) (rat, UniProt P32214 25-516; Q9JJ73 23-147)
T3 construct: whole, on cells; Membranes of BHK tk'ts 13 cells transiently transfected with the rat calcitonin receptor and rat RAMP 3; also called rAmylin-R; rat amylin 3(a) receptor
T3 sequence (looked up) 1: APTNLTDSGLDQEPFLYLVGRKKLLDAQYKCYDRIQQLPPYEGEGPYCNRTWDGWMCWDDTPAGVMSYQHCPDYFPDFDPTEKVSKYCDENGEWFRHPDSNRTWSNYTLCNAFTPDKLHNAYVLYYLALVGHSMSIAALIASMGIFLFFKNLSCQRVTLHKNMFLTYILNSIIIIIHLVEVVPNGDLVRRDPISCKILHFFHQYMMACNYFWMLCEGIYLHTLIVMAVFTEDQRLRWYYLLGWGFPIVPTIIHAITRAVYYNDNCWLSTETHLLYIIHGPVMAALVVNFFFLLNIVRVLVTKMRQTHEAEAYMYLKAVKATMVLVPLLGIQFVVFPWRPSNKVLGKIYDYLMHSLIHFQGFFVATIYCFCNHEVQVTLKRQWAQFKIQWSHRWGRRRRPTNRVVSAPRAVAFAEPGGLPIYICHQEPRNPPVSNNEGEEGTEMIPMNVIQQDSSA
T3 sequence (looked up) 2: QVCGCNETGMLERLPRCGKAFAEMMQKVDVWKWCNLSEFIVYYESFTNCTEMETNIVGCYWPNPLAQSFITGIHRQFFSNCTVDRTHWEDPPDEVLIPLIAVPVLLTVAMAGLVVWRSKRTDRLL

T4: rat calcitonin receptor (rat, UniProt P32214 25-516)
T4 construct: whole, on cells; Membranes of BHK tk'ts 13 cells transiently transfected with the rat calcitonin receptor; also called rCTR; rat calcitonin (a) receptor
T4 sequence (looked up): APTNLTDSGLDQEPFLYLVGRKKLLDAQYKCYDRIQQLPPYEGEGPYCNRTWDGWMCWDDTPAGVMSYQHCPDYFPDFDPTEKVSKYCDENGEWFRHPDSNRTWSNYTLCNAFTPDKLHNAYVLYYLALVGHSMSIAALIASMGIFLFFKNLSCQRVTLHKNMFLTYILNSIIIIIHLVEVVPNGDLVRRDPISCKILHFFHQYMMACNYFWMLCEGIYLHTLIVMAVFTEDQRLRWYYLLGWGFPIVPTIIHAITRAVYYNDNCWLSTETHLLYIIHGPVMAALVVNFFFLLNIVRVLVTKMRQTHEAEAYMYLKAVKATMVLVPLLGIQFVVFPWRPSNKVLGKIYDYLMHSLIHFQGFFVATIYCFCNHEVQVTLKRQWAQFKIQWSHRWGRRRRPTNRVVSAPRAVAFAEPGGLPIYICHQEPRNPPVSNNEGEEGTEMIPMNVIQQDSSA

T5: human calcitonin receptor (human, UniProt P30988 25-474)
T5 construct: whole, on cells; Membranes of a BHK tk'ts 13 cell line stably transfected with the human calcitonin receptor; also called hCTR; hCT
T5 sequence (looked up): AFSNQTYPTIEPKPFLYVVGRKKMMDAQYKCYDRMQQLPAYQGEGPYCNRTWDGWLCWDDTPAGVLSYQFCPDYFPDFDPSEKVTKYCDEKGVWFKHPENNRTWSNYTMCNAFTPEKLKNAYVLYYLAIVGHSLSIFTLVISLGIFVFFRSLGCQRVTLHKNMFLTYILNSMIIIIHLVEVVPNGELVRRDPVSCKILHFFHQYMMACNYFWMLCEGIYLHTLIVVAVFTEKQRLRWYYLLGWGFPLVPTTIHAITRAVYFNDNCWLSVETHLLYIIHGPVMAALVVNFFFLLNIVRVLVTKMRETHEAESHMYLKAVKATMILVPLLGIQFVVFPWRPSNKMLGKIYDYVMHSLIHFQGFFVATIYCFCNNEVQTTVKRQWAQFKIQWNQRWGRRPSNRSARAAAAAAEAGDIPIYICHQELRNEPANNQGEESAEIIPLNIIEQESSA


What was measured:
[1] = target: T1, human amylin receptor (amylin 3(a) …); test: cell-based or functional assay
[2] = target: T2, human calcitonin receptor; test: cell-based or functional assay
[3] = target: T3, rat amylin receptor (rat calcitonin …); test: SPA competition vs 125I-rat amylin, membranes with rat CTR + rat RAMP3 (Assay VI)
Method: The binding assay was performed using scintillation proximity assay (SPA) beads (RPNQ0001) from PerkinElmer and cell membranes from the Amylin 3(a)/CRE-luc cells (as described in Assay (II)) were used. Membranes were prepared in the following way; the cells were rinsed with PBS and incubated with Versene for approximately 5 min before harvesting. The cells were flushed with PBS and the cell-suspension was centrifuged for 5 min at 1000 rpm. Cells were homogenized (ultrathurrax) in a buffer containing 20 mM Na-HEPES and 10 mM EDTA (pH 7.4) and centrifuged at 20.000 rpm for 15 min. The resulting pellet was resuspended, homogenized and centrifuged (20.000 rpm, 15 min) in a buffer containing 20 mM Na-HEPES and 0.1 mM EDTA (pH 7.4, buffer 2). The resulting pellet was resuspended in buffer 2 and protein concentration was measured (BCA protein Assay, Pierce). The homogenate was kept cold during the whole procedure. The membranes were kept at −80° C. until use. The assay was performed in a 384 well Optiplate (PerkinElmer) in a total volume of 40 ul. Membranes were mixed with SPA beads. Final concentration of membranes 35 ng/μL final and SPA beads was 0.05 mg/well. Test-compounds were dissolved in DMSO and further diluted in assay buffer (50 mM Hepes, pH 7.4, 1 mM CaCl2, 5 mM MgCl₂, 0.1% OA and 0.02% Tween20). […] The final mixture was incubated with shaking at 400 rpm for 120 min at 25° C. prior to centrifugation (1500 rpm, 10 min). Samples were analyzed on TopCounter™ (Packard). The IC₅₀ was calculated using (one site binding competition analysis) GraphPad Prism5 as a measure of receptor affinity.
Cells were grown in DMEM with 10% FBS and 1% Pen/Strep. Approximately 48 hours after transfection, the cells were harvested and membranes were prepared.

[4] = target: T4, rat calcitonin receptor; test: IC50 at rCTR divided by IC50 at rAmylin-R (reference)
[5] = target: T5, human calcitonin receptor; test: IC50 at hCTR divided by IC50 at hAmylin-R (reference)
Method: The resulting pellet was resuspended, homogenized and centrifuged (20.000 rpm, 15 min) in a buffer containing 20 mM Na-HEPES and 0.1 mM EDTA (pH 7.4, buffer 2). The resulting pellet was resuspended in buffer 2 and protein concentration was measured (BCA protein Assay, Pierce). The homogenate was kept cold during the whole procedure. The membranes were kept at −80° C. until use. The assay was performed in a 384 well Optiplate (PerkinElmer) in a total volume of 40 ul. Membranes were mixed with SPA beads. Final concentration of membranes 35 ng/μL final and SPA beads was 0.05 mg/well. Test-compounds were dissolved in DMSO and further diluted in assay buffer (50 mM Hepes, pH 7.4, 1 mM CaCl2, 5 mM MgCl₂, 0.1% OA and 0.02% Tween20). […] The final mixture was incubated with shaking at 400 rpm for 120 min at 25° C. prior to centrifugation (1500 rpm, 10 min). Samples were analyzed on TopCounter™ (Packard). The IC₅₀ was calculated using (one site binding competition analysis) GraphPad Prism5 as a measure of receptor affinity.
Membranes were prepared in the following way; the cells were rinsed with PBS and incubated with Versene for approximately 5 min before harvesting. The cells were flushed with PBS and the cell-suspension was centrifuged for 5 min at 1000 rpm. Cells were homogenized (Ultrathurrax) in a buffer containing 20 mM Na-HEPES and 10 mM EDTA (pH 7.4) and centrifuged at 20.000 rpm for 15 min. The resulting pellet was resuspended, homogenized and centrifuged (20.000 rpm, 15 min) in a buffer containing 20 mM Na-HEPES and 0.1 mM EDTA (pH 7.4, buffer 2). The resulting pellet was resuspended in buffer 2 and protein concentration was measured (BCA protein Assay, Pierce). The homogenate was kept cold during the whole procedure. The membranes were kept at −80° C. until use. Assay was performed in a 384 well Optiplate (PerkinElmer) in a total volume of 40 ul. Membranes were mixed with SPA beads.

[6] = target: T4, rat calcitonin receptor; test: SPA competition vs 125I-calcitonin, membranes with rat CTR (Assay VIII)

| hAmylin-R funct. EC50 (pM) [1] [pM] | Ratio hCT/hAmylin funct. [2] | hCTR funct. EC50 (pM) [2] [pM] | IC50 [3] [nM] | Ratio rCT/rAmylin binding [4] | Ratio hCT/hAmylin binding [5] | IC50 [6] [nM] | Binder |
| --- | --- | --- | --- | --- | --- | --- | --- |
| 28 | 38.8 | 1090 | – | – | – | – | K([γGlu-C14 diacid])CNTATCATQRLANFLRHSSPNFGAIPSSTNVGHNTY-NH2 (disulfide 2-7; N-terminus assumed; SMILES CC[C@H](C)[C@H](NC(=O)[C@H](C)NC(=O)CNC(=O)[C@H](Cc1ccccc1)NC(=O)[C@H](CC(N)=O)NC(=O)[C@@H]1CCCN1C(=O)[C@H](CO)NC(=O)[C@H](CO)NC(=O)[C@H](Cc1c[nH]cn1)NC(=O)[C@H](CCCNC(=N)N)NC(=O)[C@H](CC(C)C)NC(=O)[C@H](Cc1ccccc1)NC(=O)[C@H](CC(N)=O)NC(=O)[C@H](C)NC(=O)[C@H](CC(C)C)NC(=O)[C@H](CCCNC(=N)N)NC(=O)[C@H](CCC(N)=O)NC(=O)[C@@H](NC(=O)[C@H](C)NC(=O)[C@@H]1CSSC[C@H](NC(=O)[C@@H](N)CCCCNC(=O)CC[C@H](NC(=O)CCCCCCCCCCCCC(=O)O)C(=O)O)C(=O)N[C@@H](CC(N)=O)C(=O)N[C@@H]([C@@H](C)O)C(=O)N[C@@H](C)C(=O)N[C@@H]([C@@H](C)O)C(=O)N1)[C@@H](C)O)C(=O)N1CCC[C@H]1C(=O)N[C@@H](CO)C(=O)N[C@@H](CO)C(=O)N[C@H](C(=O)N[C@@H](CC(N)=O)C(=O)N[C@H](C(=O)NCC(=O)N[C@@H](Cc1c[nH]cn1)C(=O)N[C@@H](CC(N)=O)C(=O)N[C@H](C(=O)N[C@@H](Cc1ccc(O)cc1)C(N)=O)[C@@H](C)O)C(C)C)[C@@H](C)O) [N^ε1-[(4S)-4-carboxy-4-(13-carboxytridecanoylamino)butanoyl]-[Arg17,Pro21,Pro27,His34]-h-amylin] |
| – | – | – | 1.02 | 93.6 | 36.7 | 95.6 | KCNTATCATQRLAEFLRHSSPNFGAIPSSTNVGSNTY (C20 diacid-gGlu-2xOEG on the alpha amino group of the N-terminal residue (Lys 1); disulfide bridge Cys2-Cys7; C-terminal amide, modifications are with respect to human amylin; also called compound 19) |
| – | – | – | 1.77 | 54.5 | 29 | 96.4 | KCNTATCATQRLANFLRHSSPNFGAIPSSTNVGRNTY (C20 diacid-gGlu on the alpha amino group of the N-terminal residue (Lys 1); disulfide bridge Cys2-Cys7; C-terminal amide, modifications are with respect to human amylin; also called compound 39) [N^α1-[(4S)-4-carboxy-4-(19-carboxynonadecanoylamino)butanoyl]-[Arg17,Pro21,Pro27,Arg34]-h-amylin] |
